Measured values reported in US20150218257A1.
Residue numbers refer to the chain shown, from its start.

B1: 1503_H05 (PG16) antibody, sister clone of 1443_C16 (antibody, V domains shown)
VH: QEKLVESGGGVVQPGGSLRLSCLASGFTFHKYGMHWVRQAPGKGLEWVALISDDGMRKYHSDSMWGRVTISRDNSKNTLYLQFSSLKVEDTAMFFCAREAGGPIWHDDVKYYDFNDGYYNYHYMDVWGKGTIVTVSS
VL: QSALTQPASVSGSPGQTITISCNGTRSDVGGFDSVSWYQQSPGKAPKVMVFDVSHRPSGISNRFSGSKSGNTASLTISGLHIEDEGDYFCSSLTDRSHRIFGGGTKVTVLG
B2: 1456_A12 (PG16) antibody, sister clone of 1443_C16 (antibody, V domains shown)
VH: B1 VH with Q1H, K3Q, S7A, K87R, I132K
VL: B1 VL with R26S, S27R, I60M, V107L
B3: 1469_M23 (PG16) antibody, sister clone of 1443_C16 (antibody, V domains shown)
VH: B1 VH with I132T
VL: B1 VL with K44R, V107L
B4: 1489_I13 (PG16) antibody, sister clone of 1443_C16 (antibody, V domains shown)
VH: B1 VH with K3Q, V5L, D62N, I132T
VL: B1 VL with R26S

What was measured:
Assay in all cases: cell-based or functional assay
[1] = molecular target: HIV-1 92RW020 Env on pseudovirus (HIV-1 strain 92RW020)
[2] = molecular target: HIV-1 ADA Env (gp160), on transfected 293 cells or on ADA pseudovirus (HIV-1 strain ADA)
[3] = molecular target: HIV-1 JR-CSF Env (gp160), on transfected 293/293T cells or on JR-CSF pseudovirus (HIV-1 isolate JR-CSF) (UniProt P20871)
[4] = molecular target: HIV-1 JR-CSF(I309A) Env on pseudovirus (HIV-1 isolate JR-CSF) (UniProt P20871)
[5] = molecular target: HIV-1 JR-CSF(Y318A) Env on pseudovirus (HIV-1 isolate JR-CSF) (UniProt P20871)
[6] = molecular target: HIV-1 JR-FL(E168K) Env on pseudovirus (HIV-1 strain JR-FL)

Row | Binder | IC50 (ug/ml), pseudovirus neutralisation, TZM-bl assay [1] [µg/mL] | IC50 (ug/ml), pseudovirus neutralisation, TZM-bl assay [2] [µg/mL] | IC50 (ug/ml), pseudovirus neutralisation, TZM-bl assay [3] [µg/mL] | IC50 (ug/ml), pseudovirus neutralisation, TZM-bl assay [4] [µg/mL] | IC50 (ug/ml), pseudovirus neutralisation, TZM-bl assay [5] [µg/mL] | IC50 (ug/ml), pseudovirus neutralisation, TZM-bl assay [6] [µg/mL]
1 | B1 | 0.02 | 0.003 | 0.001 | > 1 | > 1 | 0.002
2 | B2 | 0.05 | 0.005 | 0.001 | > 1 | > 1 | 0.003
3 | B3 | 0.05 | 0.005 | 0.002 | > 1 | > 1 | 0.005
4 | B4 | 0.03 | 0.008 | 0.002 | > 1 | > 1 | 0.005
